Each substance was assayed against acetylcholine receptor (Homo sapiens, UniProt P02708) (assay: SPR binding affinity (RU) of optimized 5mer/6mer/7mer peptides, Examples 6-7). Conditions: 6mer-1 Top sequence; SPR; peptides tested at 10 μM.
Outline: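 Single-concentration screen: 10 μM peptide, SPR detection, binding expressed as RU.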

acetylcholine receptor, sequence (P02708 21-457): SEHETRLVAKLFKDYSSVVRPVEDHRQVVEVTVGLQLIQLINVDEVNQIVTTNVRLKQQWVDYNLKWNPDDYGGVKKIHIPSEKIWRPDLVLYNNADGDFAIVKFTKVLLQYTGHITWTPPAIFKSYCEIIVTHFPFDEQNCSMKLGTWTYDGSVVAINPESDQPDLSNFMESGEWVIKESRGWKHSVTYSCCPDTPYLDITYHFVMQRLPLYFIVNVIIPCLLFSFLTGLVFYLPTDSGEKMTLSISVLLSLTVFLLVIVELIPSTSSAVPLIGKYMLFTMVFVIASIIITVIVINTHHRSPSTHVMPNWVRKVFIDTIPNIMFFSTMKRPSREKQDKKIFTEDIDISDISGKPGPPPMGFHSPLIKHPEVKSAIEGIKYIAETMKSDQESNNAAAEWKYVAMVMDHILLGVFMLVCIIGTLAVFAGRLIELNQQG

Substance | Binding affinity [Ru]
6mer-1-243 (KKWYLR) | 136

Same assay, conditions: 6mer-2 Top sequence; SPR; peptides tested at 10 μM

Substance | Binding affinity [Ru]
6mer-2-100 (RRRCRR) | 142
6mer-2-163 (KWFYRR) | 149
6mer-2-188 (RGYTKR) | 142
6mer-2-69 (KWFLRK) | 139
6mer-2-151 (KQLRKR) | 142
6mer-2-146 (KQLLKR) | 135
6mer-2-172 (KVIRKK) | 128
6mer-2-35 (RWISRK) | 148

Same assay, conditions: SPR, Resonance Units; 5mer Bottom sequence (bottom combinations); peptides tested at 10 μM

Substance | Binding affinity [Ru]
5mer-608 (RDSER) | 20
5mer-909 (RINVK) | 33
5mer-712 (RADFK) | 18
5mer-612 (KCTDK) | 23
5mer-978 (RYDHK) | 30
5mer-1086 (RIWDR) | 19
5mer-1053 (KHEHK) | 27
5mer-755 (KNWDR) | 15
5mer-1075 (RKHIK) | 26
5mer-936 (RNHKR) | 29
5mer-721 (RYSKK) | 22
5mer-1017 (RCTWK) | 24
5mer-655 (RKCIR) | 15
5mer-1078 (KEAWK) | 19
5mer-1098 (RFHGR) | 31
5mer-781 (RIDPR) | 28
5mer-967 (KKTHK) | 26

Same assay, conditions: SPR, Resonance Units; peptides tested at 10 μM; 6mer-1 Bottom sequence

Substance | Binding affinity [Ru]
6mer-1-1127 (RKMMMK) | 34
6mer-1-1128 (KKKKPK) | 39
6mer-1-1090 (KKTMWR) | 27
6mer-1-1071 (RKTKAK) | 38
6mer-1-1075 (KKPSVK) | 38
6mer-1-1161 (KRHWVK) | 40
6mer-1-1053 (RKYTPK) | 27
6mer-1-1119 (KRIWVR) | 31
6mer-1-1143 (KRHEFK) | 32
6mer-1-1112 (KKDPWK) | 27

Same assay, conditions: SPR, Resonance Units; peptides tested at 10 μM; 6mer-1 Bottom sequence (Table 11)

Substance | Binding affinity [Ru]
6mer-1-718 (RKFKAR) | 23
6mer-1-690 (KREAER) | 21
6mer-1-794 (RKYEPK) | 11
6mer-1-632 (RKDTAR) | 17

Same assay, conditions: SPR, Resonance Units; peptides tested at 10 μM; 6mer-2 Bottom sequence

Substance | Binding affinity [Ru]
6mer-2-689 (RDKERR) | 24
6mer-2-978 (KEPHRR) | 28
6mer-2-733 (RTPARK) | 29
6mer-2-711 (KECGRR) | 29
6mer-2-609 (RDSDRR) | 24
6mer-2-697 (KCAVKK) | 19
6mer-2-668 (RFCNKK) | 13
6mer-2-761 (RTEPRK) | 29
6mer-2-910 (RHEHRR) | 21
6mer-2-724 (KYTMKK) | 24
6mer-2-686 (KTWEKK) | 21
6mer-2-994 (KYCIKK) | 41

Same assay, conditions: SPR, Resonance Units; peptides tested at 10 μM; 6mer-2 Top sequence

Substance | Binding affinity [Ru]
6mer-2-594 (RWYRRR) | 139
6mer-2-571 (RGYQRR) | 135
6mer-2-422 (RLITRR) | 154
6mer-2-464 (KSFRKK) | 135
6mer-2-502 (KSFCKR) | 144
6mer-2-441 (KSQRKR) | 139
6mer-2-565 (KSRRRR) | 147

Same assay, conditions: SPR, Resonance Units; peptides tested at 10 μM; 6mer-2 Top sequence (Table 12)

Substance | Binding affinity [Ru]
6mer-2-232 (KQFTRK) | 135
6mer-2-381 (KVYRRR) | 139
6mer-2-250 (KRRRKK) | 145
6mer-2-312 (KWRTKR) | 121
6mer-2-357 (RGQRKK) | 151
6mer-2-355 (RGIRKK) | 124
6mer-2-224 (RLFLKR) | 148

Same assay, conditions: SPR, peptides at 10 μM; 6mer-2 Bottom sequence

Substance | Binding affinity [Ru]
6mer-2-1016 (RNEEKR) | 41
6mer-2-1008 (RAWKKR) | 38
6mer-2-1171 (KMPARR) | 40
6mer-2-1146 (REWGRK) | 32
6mer-2-1054 (KKNKKR) | 43

Same assay, conditions: SPR, peptides tested at 10 μM; 5mer Top sequence

Substance | Binding affinity [Ru]
5mer-360 (RQLCK) | 66
5mer-446 (RGLQK) | 53
5mer-373 (KVFTK) | 87
5mer-200 (KRVRR) | 55
5mer-500 (KSLQK) | 63
5mer-449 (KGLYR) | 65
5mer-106 (KLLQR) | 78
5mer-381 (KGQRR) | 87
5mer-374 (KLFTR) | 75
5mer-70 (RLLQR) | 69
5mer-123 (KWIRR) | 53
5mer-481 (KSYCK) | 78
5mer-325 (KRIQR) | 50
5mer-187 (RWVCR) | 74
5mer-467 (RRIYR) | 83
5mer-176 (RVLYK) | 52

Same assay, conditions: SPR, peptides tested at 10 μM; 5mer Top sequence (top combinations)

Substance | Binding affinity [Ru]
5mer-263 (KQVTR) | 80
5mer-513 (RWYYK) | 83
5mer-251 (KRISK) | 70
5mer-557 (KQRRK) | 87

Same assay, conditions: SPR, peptides tested at 10 μM; 6mer-1 Bottom sequence (Table 11)

Substance | Binding affinity [Ru]
6mer-1-832 (RKYWGK) | 12
6mer-1-944 (RKPAGK) | 25
6mer-1-982 (KRCPDR) | 35
6mer-1-896 (KRDWIK) | 11

Same assay, conditions: SPR, peptides tested at 10 μM; 6mer-1 Top sequence

Substance | Binding affinity [Ru]
6mer-1-553 (RRGVRK) | 128
6mer-1-533 (RKWFSR) | 145
6mer-1-490 (KKLFRR) | 133
6mer-1-544 (KRVICR) | 149
6mer-1-557 (KRQVQK) | 128
6mer-1-518 (KRWVLK) | 153
6mer-1-455 (RRVFYK) | 126
6mer-1-574 (RKSYLR) | 148

Same assay, conditions: SPR, peptides tested at 10 μM; 6mer-1 Top sequence (top combinations)

Substance | Binding affinity [Ru]
6mer-1-22 (RKRLCK) | 126
6mer-1-113 (KRGVQK) | 148
6mer-1-107 (KKQRSR) | 131
6mer-1-62 (RRWFTK) | 133
6mer-1-168 (KRWFCK) | 131
6mer-1-118 (RKLQLR) | 127
6mer-1-64 (RKQFTK) | 154
6mer-1-166 (RRWYSK) | 148

Same assay, conditions: SPR; XRRGVRR-7mer and RRGVRRX-7mer

Substance | Binding affinity, values relative to the RRGVRR sequence
3655 (QRRGVRR) [compound 3655] | 101

Same assay, conditions: SPR; peptides tested at 10 μM; 5mer Bottom sequence

Substance | Binding affinity [Ru]
5mer-1184 (RDSMK) | 14
5mer-843 (KTTPK) | 17
5mer-1139 (KHCWK) | 28
5mer-892 (RKPMR) | 29
5mer-872 (RKKWK) | 29
5mer-1182 (REKWK) | 15
5mer-844 (KTDPR) | 32
5mer-812 (KTEGR) | 27

Reference: US20250011363A1, “OPTIMIZED SHORTENED PEPTIDE THAT BINDS TO ACETYLCHOLINE RECEPTOR, AND USE THEREOF” (SKINMED CO., LTD., priority 2021, published 2025)
